How the values were obtained:
IgE Fc Cε3–4 fragment = biological target: T1, IgE Fc Cε3–4 fragment (human, UniProt P01854, (N-acetylglucosamine)2(mannose)5 hepta-saccharide on N394); assay: crystal structure; 026 sdab:IgE Fc complex, 5 mg/ml in 20 mM HEPES, 50 mM NaCl, pH 7.2; sitting drops, 0.1 M imidazole pH 7.0, 11-12% PEG 20,000; 3.4 Å; details: both partners purified
T1 construct: human IgE heavy chain constant region, domains Cε3 and Cε4, as found in the crystals; Not a designed construct: the crystals held this fragment and not the Cε2–4 that was expected; also called IgE Cε3–4; source: HEK-293; a small fraction in the purified IgE Fc Cε2–4 preparation, crystallized with 026 sdab

[1] = biological target: the molecule itself; assay: as above

Binder | stoichiometry N (IgE Fc Cε3–4 fragment) | binding result [1]
026 sdab (VHH, llama-derived, humanized single-domain antibody; Synthetic gene; also called sdab 026; anti-IgE sdab 026) VHH: EVQLLESGGGLVQPGGSLRLSCAASGFTFGNYDMAWVRQAPGKRPEWVSSIDTGGDITHYADSVKGRFTISRDNAKNTLYLQMNSLRPEDTAVYWCATDEEYALGPNEFDYYGQGTLVTVSS | 2 sdab per IgE Fc | 
IgE Fc Cε3–4 fragment (domain or fragment, human, (N-acetylglucosamine)2(mannose)5 hepta-saccharide on N394, human IgE heavy chain constant region, domains Cε3 and Cε4, as found in the crystals; Not a designed construct: the crystals held this fragment and not the Cε2–4 that was expected; also called IgE Cε3–4; source: HEK-293; a small fraction in the purified IgE Fc Cε2–4 preparation, crystallized with 026 sdab) RGVSAYLSRPSPFDLFIRKSPTITCLVVDLAPSKGTVNLTWSRASGKPVNHSTRKEEKQRNGTLTVTSTLPVGTRDWIEGETYQCRVTHPHLPRALMRSTTKTSGPRAAPEVYAFATPEWPGSRDKRTLACLIQNFMPEDISVQWLHNEVQLPDARHSTTQPRKTKGSGFFVFSRLEVTRAEWEQKDEFICRAVHEAASPSQTVQRAVSVNP |  | binds
